Test results published in paper PMC4898720, “NrdR Transcription Regulation: Global Proteome Analysis and Its Role in Escherichia coli Viability and Virulence” (PLoS ONE, 2016).

Target: the molecule itself
Assay: SDS-PAGE of gel filtration fractions with peptide mass fingerprinting; SDS-PAGE of Superdex 200 fractions of un-refolded and refolded NrdR; ~40 kDa band identified by peptide mass fingerprinting; samples boiled 10 min with 5 mM DTT

B1: E. coli NrdR (natural protein, UniProt P0A8D0 1-149, looked up)
chain: MHCPFCFAVDTKVIDSRLVGEGSSVRRRRQCLVCNERFTTFEVAELVMPRVVKSNDVREPFNEEKLRSGMLRALEKRPVSSDDVEMAINHIKSQLRATGEREVPSKMIGNLVMEQLKKLDKVAYIRFASVYRSFEDIKEFGEEIARLED
notes: Transcriptional repressor NrdR of E. coli BW25113, full length ORF cloned between NdeI and XhoI of pET21b; also called EcNrdR; as prepared NrdR; source: E. coli BL21 (DE3), purified (HisTrap Ni column, Superdex 200 gel filtration)
With B1 the “stoichiometry N” value was 2.
